Measurements published in the supplement of paper PMC9876800.

System: peptide library, one residue held at a place counted from the S/T acceptor
Test: relative phosphorylation of the sub-library (ratio to the mean residue at this position); higher = residue favoured
Settings: human
How it was run: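 Relative sub-library phosphorylation is a ratio to the mean residue at the same position. Purified recombinant kinases were incubated under kinase-specific conditions with biotinylated degenerate peptide sub-libraries, each fixing one residue at one position around a central Ser/Thr, using 50 μM peptide and 50 μM ATP spiked with γ-32P-ATP for 90 min. Spots captured on streptavidin membranes were phosphorimaged and quantified by densitometry.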

MAPK3, construct: Full length, sequence (P27361 whole entry, looked up): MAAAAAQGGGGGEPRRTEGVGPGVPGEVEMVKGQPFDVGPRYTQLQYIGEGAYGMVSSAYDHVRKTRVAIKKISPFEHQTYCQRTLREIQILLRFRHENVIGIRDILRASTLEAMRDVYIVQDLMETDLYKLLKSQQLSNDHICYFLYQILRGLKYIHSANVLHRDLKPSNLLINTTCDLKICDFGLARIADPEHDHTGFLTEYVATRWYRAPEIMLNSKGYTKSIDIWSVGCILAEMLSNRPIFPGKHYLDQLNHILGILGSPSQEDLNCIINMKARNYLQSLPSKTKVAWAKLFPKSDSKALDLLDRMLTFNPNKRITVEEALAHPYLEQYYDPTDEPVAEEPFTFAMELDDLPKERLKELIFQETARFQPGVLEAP
MAPK10, construct: aa1-426, sequence (P53779 1-426, looked up): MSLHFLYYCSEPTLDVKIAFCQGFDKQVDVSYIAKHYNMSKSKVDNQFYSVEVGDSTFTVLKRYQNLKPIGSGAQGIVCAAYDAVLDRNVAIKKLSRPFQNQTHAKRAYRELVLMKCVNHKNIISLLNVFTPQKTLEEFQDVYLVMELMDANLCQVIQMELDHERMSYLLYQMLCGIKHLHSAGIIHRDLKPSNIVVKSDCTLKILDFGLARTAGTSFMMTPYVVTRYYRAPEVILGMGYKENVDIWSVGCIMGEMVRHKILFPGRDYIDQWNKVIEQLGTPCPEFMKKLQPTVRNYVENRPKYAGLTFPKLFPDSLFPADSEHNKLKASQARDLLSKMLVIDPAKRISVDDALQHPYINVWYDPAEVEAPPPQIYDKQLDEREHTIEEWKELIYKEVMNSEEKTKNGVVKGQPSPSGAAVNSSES

MAPK3, construct: Full length (from UniProt P27361)
relative phosphorylation
Settings	at +1	at +2	at +3	at +4	at -1	at -2	at -3	at -4	at -5
A fixed	1.21	1.07	1.04	0.886	0.999	1.2	1.23	1.09	1.06
D fixed	0.0833	0.582	0.614	0.81	0.5	0.407	0.989	1.19	1.31
E fixed	0.0773	0.244	0.706	0.732	0.509	0.454	1.27	1.35	1.2
F fixed	0.372	1.1	1.15	1.22	0.802	0.577	0.808	0.946	1.09
G fixed	0.947	1.34	1.13	1.02	1	0.724	1.32	1.25	1.25
H fixed	0.217	1.26	1.11	1.07	0.975	0.461	0.949	0.914	1.11
I fixed	0.292	0.775	0.878	0.943	0.67	1.18	0.792	0.82	0.724
K fixed	0.179	1.58	0.699	1.31	1.35	0.345	0.663	0.874	0.904
L fixed	0.398	1.11	1.08	1.02	1.31	1.42	0.917	0.958	0.903
M fixed	0.276	0.987	0.971	1.09	1.39	1.29	1.08	1.09	0.907
N fixed	0.155	1.26	0.786	0.931	0.785	0.613	0.989	0.855	0.93
P fixed	11.6	0.628	1.56	0.896	1.26	4.97	1.74	1.18	1.11
Q fixed	0.159	0.788	0.736	1.01	1.1	0.82	1.05	0.942	0.975
R fixed	0.223	2.13	0.979	1.1	1.85	0.566	0.907	0.905	0.841
V fixed	0.291	0.711	0.879	0.903	0.746	1.22	0.837	0.777	0.783
W fixed	0.261	0.681	1.55	1.12	0.654	0.386	0.659	0.913	0.781
Y fixed	0.211	0.744	1.13	0.931	1.08	0.373	0.798	0.948	1.13
pThr fixed	0.338	0.662	0.663	0.75	0.373	0.941	1.23	1.23	1.41
pTyr fixed	0.323	0.38	1.01	1.08	0.444	0.686	1.29	1.37	1.25

MAPK10, construct: aa1-426 (from UniProt P53779)
relative phosphorylation
Settings	at +1	at +2	at +3	at +4	at -1	at -2	at -3	at -4	at -5
A fixed	0.471	0.918	1.3	1.17	1.08	2.16	1.22	1.22	1.17
D fixed	0.256	1	1.44	1.34	0.89	0.958	1.36	1.39	1.42
E fixed	0.234	0.725	1.52	1.25	0.855	0.548	1.15	1.28	1.18
F fixed	0.456	0.765	0.929	0.851	0.752	0.582	1	0.854	0.875
G fixed	0.671	1.12	1.38	1.1	1.16	0.785	1.13	1.06	1.15
H fixed	0.281	1.05	1.19	1.12	1.13	0.552	1.08	1.03	0.964
I fixed	0.351	1.26	0.596	0.783	0.662	1.25	0.735	0.705	0.738
K fixed	0.268	0.779	0.611	0.82	0.982	0.548	0.653	0.783	0.754
L fixed	0.366	1.27	0.77	0.913	1.2	1.96	0.853	0.753	0.644
M fixed	0.369	1.76	0.922	0.888	1.27	1.07	1.06	1.01	0.722
N fixed	0.269	1.03	1.07	1.07	0.849	0.554	1.03	0.84	0.928
P fixed	11.5	0.517	0.564	1.5	1.47	2.13	1.2	1.23	1.33
Q fixed	0.259	1.03	1	1.05	1.37	0.747	0.964	1.01	1.07
R fixed	0.269	0.848	0.945	0.893	1.01	0.612	0.883	0.923	1.07
V fixed	0.367	1.48	0.723	0.82	0.781	1.43	0.717	0.843	0.913
W fixed	0.29	0.723	1.03	0.701	0.722	0.587	1.03	1.1	0.967
Y fixed	0.292	0.734	0.999	0.732	0.815	0.518	0.929	0.962	1.1
pThr fixed	0.434	1.94	1.02	1.4	0.52	1.08	1.06	1.17	1.29
pTyr fixed	0.569	1.23	1.59	1.02	0.893	0.598	1.03	1.64	1.41
